The values below come from paper PMC4498918.

What all share (assay): EMSA
(A gel shift assay detects complexes by their altered migration in electrophoresis.)

Data set [1] relates to δ2 (ParA-like) (Streptococcus pyogenes plasmid pSM19035). The conditions noted are these: 1 mM ATP, 10 mM Mg2+; KDapp, cooperative; EMSA: 50 mM Tris-HCl pH 7.5, 50 mM NaCl, 10 mM MgCl2 (buffer B; Fig 7 legend says buffer C), with or without 1 mM ATP or ADP, 15 min at 37°C, 0.1 nM DNA; 4 or ….
Data set [2] deals with δ2D211A (Streptococcus pyogenes plasmid pSM19035). The conditions noted are these: EMSA: 50 mM Tris-HCl pH 7.5, 50 mM NaCl, 10 mM MgCl2 (buffer B; Fig 7 legend says buffer C), with or without 1 mM ATP or ADP, 15 min at 37°C, 0.1 nM DNA; 4 or ….
The subject of data set [3] is δ2D60A (Streptococcus pyogenes plasmid pSM19035). The following applies: EMSA: 50 mM Tris-HCl pH 7.5, 50 mM NaCl, 10 mM MgCl2 (buffer B; Fig 7 legend says buffer C), with or without 1 mM ATP or ADP, 15 min at 37°C, 0.1 nM DNA; 4 or ….
Data set [4] deals with δ2K242A (Streptococcus pyogenes plasmid pSM19035). The conditions noted are these: EMSA: 50 mM Tris-HCl pH 7.5, 50 mM NaCl, 10 mM MgCl2 (buffer B; Fig 7 legend says buffer C), with or without 1 mM ATP or ADP, 15 min at 37°C, 0.1 nM DNA; 4 or ….

As to 423-bp HindIII-KpnI parS2 DNA, the Kd in data set [1] is 140 nM. For the same substance, the binding signal (fold higher affinity than wt) in data set [2] is over 6; in data set [3] it was 2. In addition, the binding signal (fold lower binding than wt) in data set [4] amounted to 20.
